What all share (test): IEDB peptide-MHC binding, purified MHC/competitive/radioactivity; filed as Kd, often an IC50 or EC50 that approximates it; ≥ and ≤ were set here for values at or beyond the usual limits of such assays
Test [1] concerns the target HLA-A*02:02.
For test [2], the target named is HLA-A*02:03.
Test [3] addresses HLA-A*02:06.
Test [4] has as its target HLA-A*03:01.
For test [5], the target named is HLA-A*11:01.
In test [6] the target is HLA-A*31:01.
The target of test [7] is HLA-A*33:01.
Test [8] deals with HLA-A*68:01.
Where [9] appears, read: source organism: Mammarenavirus guanaritoense.
The mark [10] stands for this setting: source organism: Vaccinia virus WR.
Setting [11] is: source organism: SARS coronavirus Tor2.
Where [12] appears, read: source organism: Dengue virus 3 Martinique/1243/1999.
Where [13] appears, read: source organism: Dengue virus 4 Philippines/H241/1956.
[14] abbreviates: source organism: Vaccinia virus Copenhagen.
Where [15] appears, read: source organism: Mammarenavirus brazilense.
Where [16] appears, read: source organism: Mammarenavirus machupoense.

In general, Kd refers to the free concentration of one partner at which half of the binding sites on the other are occupied at equilibrium, for simple one-to-one binding.

In the case of FMNDLQVSR, the dissociation constant Kd in test [1] (setting [9]) was 249 nM; in test [2] (setting [9]), 914 nM; in test [3] (setting [9]), at least 33600 nM.

On to SALMTLDDL, for which the dissociation constant (Kd) came to 411 nM in test [1] (setting [10]), 707 nM in test [2] (setting [10]) and 99.9 nM in test [3] (setting [10]).

For the sequence YIKDLKHAT, the Kd in test [1] (setting [10]) is 18500 nM; in test [2] (setting [10]) it was at least 78100 nM; in test [3] (setting [10]), at least 39400 nM.

With DITNILGGV, the equilibrium dissociation constant (Kd) in test [1] (setting [10]) was determined as 9880 nM; in test [2] (setting [10]) it was 1640 nM; in test [3] (setting [10]) it was 7430 nM.

With IASGQRCHFI, the Kd in test [1] (setting [10]) came to 526 nM; in test [2] (setting [10]) it was 8320 nM; in test [3] (setting [10]), 256 nM.

For the sequence LLNMRDLIV, the values for the Kd in test [1] (setting [10]), in test [2] (setting [10]) and in test [3] (setting [10]) were 665 nM, 1.23 nM and 225 nM, respectively.

With NQGNILMDSI, the Kd in test [1] (setting [10]) was 3930 nM; in test [2] (setting [10]) it was 4040 nM; in test [3] (setting [10]), 3090 nM.

Take PTSETMYLT: the Kd in test [1] (setting [10]) is 10400 nM; in test [2] (setting [10]) it was 3640 nM; in test [3] (setting [10]) it was at least 77100 nM.

In the case of ALVCYIVMPV, the equilibrium dissociation constant (Kd) was found to be 1.2 nM in test [1] (setting [11]), 4.4 nM in test [2] (setting [11]) and 2.92 nM in test [3] (setting [11]).

Take EIVKNIREGT: the dissociation constant Kd is at least 28500 nM in test [1] (setting [10]), 8530 nM in test [2] (setting [10]) and at least 60700 nM in test [3] (setting [10]).

In the case of VQLPKRGVRV, the dissociation constant (Kd) in test [1] (setting [10]) is at least 33700 nM; in test [2] (setting [10]), 2210 nM; in test [3] (setting [10]), 41.3 nM.

In the case of PLHIVCSKT, the dissociation constant (Kd) in test [1] (setting [10]) was determined as 997 nM; in test [2] (setting [10]) it was 2150 nM; in test [3] (setting [10]), 3890 nM.

NLKYTVIITV: the dissociation constant Kd in test [2] (setting [12]) amounted to 9.29 nM.

Take NTIDKSSPL: the equilibrium dissociation constant (Kd) was 82.3 nM in test [1] (setting [10]), 27.1 nM in test [2] (setting [10]) and 18.6 nM in test [3] (setting [10]).

Take EVLMSPCRM: the dissociation constant (Kd) was found to be 6830 nM in test [1] (setting [10]), 651 nM in test [2] (setting [10]) and 11800 nM in test [3] (setting [10]).

Consider KLLYAAEMV, for which the figures for the Kd in test [1] (setting [10]), in test [2] (setting [10]) and in test [3] (setting [10]) were 57.6 nM, 54.3 nM and 17.9 nM, respectively.

For QLMCQPILLL, the dissociation constant (Kd) in test [1] (setting [11]) turned out to be 92.3 nM; in test [2] (setting [11]) it was 217 nM; in test [3] (setting [11]), 325 nM.

Turning to DLNIFMTLV, the figures for the Kd in test [1] (setting [10]), in test [2] (setting [10]) and in test [3] (setting [10]) were 1910 nM, 556 nM and 2190 nM, respectively.

In the case of LAEHISDSI, the dissociation constant Kd stood at 45.2 nM in test [1] (setting [10]), 731 nM in test [2] (setting [10]) and 19200 nM in test [3] (setting [10]).

Regarding GLKSKTHAVL, the Kd in test [2] (source organism: Homo sapiens) was 1.05 nM; in test [3] (source organism: Homo sapiens) it was at least 69800 nM.

With MLKLFTHDIM, the Kd in test [1] (setting [10]) was 84.6 nM; in test [2] (setting [10]) it was 93.1 nM; in test [3] (setting [10]), at least 20300 nM.

Consider IIGHIGHHYI, for which the Kd was determined as 400 nM in test [1] (setting [10]), 186 nM in test [2] (setting [10]) and 1350 nM in test [3] (setting [10]).

IASKINNNRI: the Kd in test [1] (setting [10]) stood at 732 nM; in test [2] (setting [10]), 18500 nM; in test [3] (setting [10]), 9420 nM.

As for KLLNMRDLIV, the dissociation constant Kd in test [1] (setting [10]) was determined as 194 nM; in test [2] (setting [10]) it was 29.4 nM; in test [3] (setting [10]) it was 2.77 nM.

RLASMAICSA: the dissociation constant (Kd) in test [2] (setting [13]) is 24.5 nM.

Regarding IVLEFFMMVL, in test [3] (setting [12]), the Kd came out at 107 nM.

With TLATGPVLTL, the dissociation constant Kd in test [2] (setting [13]) was determined as 28.3 nM.

For FMECNLNEL, the dissociation constant (Kd) in test [2] (source organism: Homo sapiens) amounted to 1.1 nM.

As for IQLDEKSSIK, the Kd in test [4] (setting [10]) was 1.25 nM; in test [5] (setting [10]), 4.57 nM; in test [6] (setting [10]), 81.1 nM; in test [7] (setting [10]), at least 70000 nM; in test [8] (setting [10]) it was 551 nM.

For YTYDRVDIYY, the equilibrium dissociation constant (Kd) turned out to be 97.4 nM in test [4] (setting [10]); 2.41 nM in test [5] (setting [10]); 11000 nM in test [6] (setting [10]); 1170 nM in test [7] (setting [10]); 0.96 nM in test [8] (setting [10]).

As for IFMRDWNSKY, the Kd in test [4] (setting [10]) is at least 33300 nM; in test [5] (setting [10]), at least 20500 nM; in test [6] (setting [10]), 2480 nM; in test [7] (setting [10]), 13700 nM; in test [8] (setting [10]) it was 10900 nM.

Take ILNKIVQLPK: the equilibrium dissociation constant (Kd) was 17.3 nM in test [4] (setting [10]); 289 nM in test [5] (setting [10]); 2070 nM in test [6] (setting [10]); at least 70000 nM in test [7] (setting [10]); 8300 nM in test [8] (setting [10]).

Take LLNVTYNIK: the Kd in test [4] (setting [14]) is 7700 nM; in test [5] (setting [14]), 4830 nM; in test [6] (setting [14]), at least 77900 nM; in test [7] (setting [14]), at least 77700 nM; in test [8] (setting [14]), 11300 nM.

As to YSGLTPEQK, the Kd is 18800 nM in test [4] (setting [10]); 497 nM in test [5] (setting [10]); 16200 nM in test [6] (setting [10]); at least 53000 nM in test [7] (setting [10]); 494 nM in test [8] (setting [10]).

In the case of NSTCYVFGLY, the dissociation constant (Kd) was 161 nM in test [4] (setting [10]); 19.5 nM in test [5] (setting [10]); 3240 nM in test [6] (setting [10]); 9000 nM in test [7] (setting [10]); 8.95 nM in test [8] (setting [10]).

Turning to ALSEAREHLK, the dissociation constant (Kd) in test [4] (setting [11]) was 80.6 nM; in test [5] (setting [11]), 141 nM; in test [6] (setting [11]), 5320 nM; in test [7] (setting [11]) it was at least 70000 nM; in test [8] (setting [11]) it was 2960 nM.

For LTDTIESAK, the Kd in test [4] (setting [10]) amounted to 1070 nM; in test [5] (setting [10]), 125 nM; in test [6] (setting [10]), 8.11 nM; in test [7] (setting [10]), 3.04 nM; in test [8] (setting [10]) it was 25.7 nM.

Consider ELVKHGLRAL, for which, in test [3] (source organism: Homo sapiens), the dissociation constant Kd was at least 43400 nM.

As for MVNHSTYYVH, the Kd was determined as 10100 nM in test [4] (setting [15]); 6280 nM in test [5] (setting [15]); 544 nM in test [6] (setting [15]); 3020 nM in test [7] (setting [15]); 391 nM in test [8] (setting [15]).

As for NTKSDIDVIK, the Kd in test [4] (setting [10]) was found to be 8260 nM; in test [5] (setting [10]) it was 68.4 nM; in test [6] (setting [10]), 4030 nM; in test [7] (setting [10]), 970 nM; in test [8] (setting [10]), 0.547 nM.

On to SLYMAISPK, for which the Kd was 13.6 nM in test [4] (setting [11]); 21.9 nM in test [5] (setting [11]); 1010 nM in test [6] (setting [11]); at least 49500 nM in test [7] (setting [11]); 2190 nM in test [8] (setting [11]).

Regarding LNNSFYYMR, the Kd was at least 78000 nM in test [4] (setting [16]); 5880 nM in test [5] (setting [16]); 4.64 nM in test [6] (setting [16]); at least 21700 nM in test [7] (setting [16]); 15.3 nM in test [8] (setting [16]).

Take LSSIKSKSR: the dissociation constant Kd in test [4] (setting [10]) came to 3070 nM; in test [5] (setting [10]), 4160 nM; in test [6] (setting [10]), 755 nM; in test [7] (setting [10]), 1570 nM; in test [8] (setting [10]) it was 612 nM.

Take KVVGLYGNGV: the Kd in test [3] (source organism: Dengue virus 2 Jamaica/1409/1983) was determined as 11.8 nM.

For the sequence VTTKDYFSFK, the Kd in test [4] (setting [10]) was 26.1 nM; in test [5] (setting [10]) it was 11 nM; in test [6] (setting [10]), 561 nM; in test [7] (setting [10]), 7280 nM; in test [8] (setting [10]), 155 nM.

Consider IAEYIAGLK, for which the Kd was 63.3 nM in test [4] (setting [10]); 147 nM in test [5] (setting [10]); 8070 nM in test [6] (setting [10]); 1320 nM in test [7] (setting [10]); 1.27 nM in test [8] (setting [10]).

On to YIAVANCVR, for which the equilibrium dissociation constant (Kd) in test [4] (setting [10]) is at least 78000 nM; in test [5] (setting [10]) it was 13900 nM; in test [6] (setting [10]) it was 14.2 nM; in test [7] (setting [10]), 284 nM; in test [8] (setting [10]) it was 6.73 nM.

As to ISQFSYKELY, the Kd in test [4] (setting [10]) is 5720 nM; in test [5] (setting [10]), 1250 nM; in test [6] (setting [10]), 9580 nM; in test [7] (setting [10]), at least 46800 nM; in test [8] (setting [10]) it was 7760 nM.

Regarding YIYSEIKQGR, the equilibrium dissociation constant (Kd) was determined as 1650 nM in test [4] (setting [10]); 11600 nM in test [5] (setting [10]); 16.5 nM in test [6] (setting [10]); 853 nM in test [7] (setting [10]); 6.39 nM in test [8] (setting [10]).

Turning to DTIVSRSSR, the Kd in test [4] (setting [10]) is at least 78000 nM; in test [5] (setting [10]), at least 77900 nM; in test [6] (setting [10]) it was 1410 nM; in test [7] (setting [10]) it was 5.71 nM; in test [8] (setting [10]), 5.79 nM.

Take YLSDSDNIK: the dissociation constant Kd is 2600 nM in test [4] (setting [10]); 8570 nM in test [5] (setting [10]); at least 77900 nM in test [6] (setting [10]); at least 50700 nM in test [7] (setting [10]); 1120 nM in test [8] (setting [10]).

Source of the values: the Immune Epitope Database (IEDB).
